# Experimental data as given in article PMC5253651, “Human farnesyl pyrophosphate synthase is allosterically inhibited by its own product” (Nature Communications, 2017).
# B1: Human farnesyl pyrophosphate synthase (enzyme)
# chain: MNGDQNSDVYAQEKQDFVQHFSQIVRVLTEDEMGHPEIGDAIARLKEVLEYNAIGGKYNRGLTVVVAFRELVEPRKQDADSLQRAWTVGWCVELLQAFFLVADDIMDSSLTRRGQICWYQKPGVGLDAINDANLLEACIYRLLKLYCREQPYYLNLIELFLQSSYQTEIGQTLDLLTAPQGNVDLVRFTEKRYKSIVKYKTAFYSFYLPIAAAMYMAGIDGEKEHANAKKILLEMGEFFQIQDDYLDLFGDPSVTGKIGTDIQDNKCSWLVVQCLQRATPEQYQILKENYGQKEAEKVARVKALYEELDLPAVFLQYEEDSYSHIMALIEQYAAPLPPAVFLGLARKIYKRRK
# notes: Human farnesyl pyrophosphate synthase (FPPS), UniProt P14324 as printed; Crystallised with the small molecule FPP in the allosteric pocket; One subunit in the asymmetric unit; the homodimer arises by crystallographic symmetry; also called FPPS; human FPPS; source: E. coli BL21 (DE3), purified (Ni-nitrilotriacetic acid, Superdex 200 size-exclusion chromatography)
# Molecular target: the molecule itself
# Assay: crystal structure; human FPPS (10 mg/ml) crystallised with 1 mM FPP and 2 mM MgCl2, sitting drop, 22 °C; 1.9 Å; one subunit in the asymmetric unit, biological assembly a homodimer
protein,measurement,value
B1,binding result,binds
